# From patent US20260167712A1, “INHIBITORY ANTIBODIES AGAINST GLUT1” (ICOSAGEN CELL FACTORY OÜ, priority 2022, published 2026)
# Positions count from the first letter of the chain named. “Also recorded” adds a separate entry of the source.
# T1: HEK-293-ALL cells transfected with human SLC2A1 (Homo sapiens, UniProt P11166)
# T1 construct: expressed in transfected cells; host or cells: HEK-293-ALL
# T1 sequence (P11166 1-492): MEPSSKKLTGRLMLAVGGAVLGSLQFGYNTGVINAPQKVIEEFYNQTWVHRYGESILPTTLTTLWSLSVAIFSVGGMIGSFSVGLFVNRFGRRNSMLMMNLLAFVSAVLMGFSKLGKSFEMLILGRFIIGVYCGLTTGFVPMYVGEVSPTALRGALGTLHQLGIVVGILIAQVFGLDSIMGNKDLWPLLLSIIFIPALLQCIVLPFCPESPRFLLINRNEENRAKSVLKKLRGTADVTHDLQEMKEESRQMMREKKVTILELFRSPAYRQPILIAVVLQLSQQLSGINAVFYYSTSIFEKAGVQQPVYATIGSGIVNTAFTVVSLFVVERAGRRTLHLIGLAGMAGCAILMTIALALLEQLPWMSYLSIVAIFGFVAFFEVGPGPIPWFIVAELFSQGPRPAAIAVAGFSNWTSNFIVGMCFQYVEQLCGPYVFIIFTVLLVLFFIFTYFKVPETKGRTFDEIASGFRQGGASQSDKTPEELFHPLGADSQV
# T2: SLC2A1 pseudotyped VLPs (UniProt P11166 1-492)
# T2 chain: T1 sequence (P11166 1-492)
# T3: SLC2A1 pseudotyped VLPs (Homo sapiens, UniProt P11166)
# T3 sequence (P11166 1-492): T1 sequence (P11166 1-492)
# B1: 5G5 #30 (antibody, V domains shown)
# VH: AVTLDESGGGLQTPGGALSLVCKASGFTFSSHAIFWVRQAPDKGLEFVAAISSSSGSWTAYATVVKGRATISRDNGQSTVRLQLNNLRAEDTGTYYCAKAAGSACCYAGSIDAWGHGTEVIVSS
# VL: ALTQPSSVSANPGETVKITCSGGSGSSYYGWYQQKSPGSAPVTVIYYDDKRPSDIPSRFSGSKSGSTATLTITGVQVEDEAVYYCGTGDGSIAIFGAGTTLTVL
# B2: 1G2 #9 (antibody, V domains shown)
# VH: AVTLDESGGGLQTPGGALSLVCKASGFTFSTKGMGWVRQTPGKGLEWVAGISSMRRYTYYAPAVKGRATISRDNGQSTVRLQLSSLRAEDSGTYYCARDATYCSWTTSTCGWSGGTIDAWGHGTEVIVSS
# VL: ALTQPSSVSANPGETVKITCSGSSGSYGWYQQKSPGSAPVTVIYWDDERPSGIPSRFSGSASGSTATLTITGVQAEDEAVYFCGSIDSSVGYVGIFGAGTTLTVL
# B3: 2A2 #12 (antibody, V domains shown)
# VH: B2 VH with A24G, G35M, T40A, R55S, T78A, S91T, T107A
# VL: ALTQPSSVSANPGETVKITCSGGYSYYGTYYYSWYQQKSPGSAPVTLIYRNDKRPSDIPSRFSGSGSGSTSTLTITGVQAEDEAVYFCGSYDSSDSGIFGAGTTLTVL
# B4: 7C3 #39 (antibody, V domains shown)
# VH: B2 VH
# VL: ALTQPSSVSANLGGTVKITCSGGGSSSYYGWYQQKSPGSAPVTVIYGNDRRPSDIPSRFSGSASGSTATLTITGVQAEDEAVYFCGSADSSDSGSGIFGAGTTLTVL
# How the values were obtained:
# [1] = tested on: MIAPACA2 pancreatic cancer cell line; assay: Cell proliferation inhibition assay (Incucyte), MIAPACA2; assay type: cell-based; conditions: alone, FIG. 11
# Protocol: (§1) Incucyte S3 Live cell analysis instrument and Cell-by-Cell analysis software module (Sartorius) were used to evaluate the effect of anti-SLC2A1 antibodies on cancer cell proliferation label-free (FIGS. 5-11). MCF7, PC3 or PANC1 or MIAPACA2 cells were plated on flat bottom tissue culture 96-well plate in […] medium (Ximbio) supplemented with 2.5% FBS. Cells were incubated overnight and 0.02 nM to 13 μM anti-SLC2A1 antibodies, anti-HEL isotype control, PBS or BAY-876 were added to the cells alone or in combination with metformin (CaymanChem), phenformin (Sigma Aldrich) or IACS-010759 (CaymanChem). Cell confluence or object count was measured for 24 to 96 hours with Incucyte S3 and normalized to timepoint 0 h or 4h. anti-SLC2A1 antibodies inhibit cancer cell proliferation alone and especially in combination with complex-I inhibitors metformin, phenformin and IACS-010759. Exemplary antibodies 1G2 #9, 2A2 #12, 2E5 #22, 5G5 #30, 6F12 #33, 7C3 #39 and R14 #54 were used in proliferation assays.
# [2] = tested on: PC3 prostate cancer cell line; assay: Cell proliferation inhibition assay (Incucyte), PC3; assay type: cell-based; conditions: alone, FIG. 11
# Protocol: as §1
# MCF7 breast cancer cells = assay: Cell proliferation inhibition assay (Incucyte), MCF7; assay type: cell-based; conditions: for MCF7 cell growth (confluence), single agent: alone, Incucyte; for MCF7 cell growth in combination with phenformin: co-treatment with phenformin, FIGS. 7 and 9
# Protocol: as §1
# [3] = molecular target: T1, HEK-293-ALL cells transfected with human SLC2A1; assay: 2-Deoxyglucose uptake assay (Glucose Uptake-Glo); assay type: cell-based; conditions: 2-hour incubation, 0.35 nM to 6.89 μM, 1 mM 2DG for 20 min, FIG. 4
# Protocol: To evaluate if the described anti-SLC2A1 antibodies inhibit glucose uptake, a commercial Glucose Uptake-Glo Assay kit (Promega) was utilized according to manufacturer's instructions. In short, HEK-293-ALL cells were transfected with human SLC2A1 expression plasmid and were incubated at 37° C. overnight in the presence of 5% CO2. Cells were washed with 0.5% BSA PBS twice and 7000 cells were plated per well into white clear bottom 96-well plates in 0.5% BSA PBS in the presence of 0.35 nM to 6.89 μM anti-SLC2A1 antibodies or glucose uptake inhibitor BAY-876 (CaymanChem). Cells were incubated for 2 hours at room temperature. Glucose uptake was initiated by the addition of 1 mM 2-deoxyglucose (2DG) and was allowed to proceed for 20 min at 37° C. in the presence of 5% CO2. After adding STOP and neutralization reagents included in the kit, luminescence was measured using GloMax Explorer microplate reader (Promega). Nonspecific luminescence was measured in lysates from cells without (2DG) being added. Data was normalized to nonspecific luminescence and to the average value of luminescence in the presence of no inhibitors.
# SLC2A1 pseudotyped VLPs [4] = molecular target: T2, SLC2A1 pseudotyped VLPs; assay: ELISA
# SLC2A1 pseudotyped VLPs [5] = molecular target: T3, SLC2A1 pseudotyped VLPs; assay: ELISA-based SLC2A1 VLP binding assay; conditions: 5 μg/mL VLP coating, FIG. 1
# Protocol: An ELISA-based VLP binding assay was carried out to compare the EC50 values of antibody clones (FIG. 1). Similarly, ELISA based VLP binding assay was performed to compare the binding of the antibodies to different glucose transporters (FIG. 3). MaxiSorp™ high-capacity binding ELISA plate (Thermo Fisher Scientific, US) were coated with 5 μg/mL SLC2A1, SLC2A2, SLC2A3, SLC2A4 pseudotyped VLPs or MOCK VLPs in PBS overnight. The plate was washed and blocked for 1 h with 0.05% Tween 20, 2% BSA in PBS. Serial dilutions of antibodies were incubated on a washed plate for 1 hour, followed by a 1-hour incubation with goat anti-human IgG horse radish peroxidase (HRP) conjugated (Invitrogen) antibody. TMB (3,3′,5,5′-Tetramethylbenzidine) Solution VII (Biopanda Diagnostics) was used as a substrate for HRP and 0.5 M H2SO4 was used as stop solution. After every step, the wells were washed with 0.05% Tween 20, 0.1% Proclin 300 PBS solution. Absorption at 450 nm was measured with Thermo Scientific™ Multiskan™ FC Microplate Photometer. Exemplary wise used antibodies 1G2 #9, 2A2 #12, 2E5 #22, 5G5 #30, 6F12 #33, 7C3 #39 all bound SLC2A1 VLPs with low nanomolar EC50 values (FIG. 1).
Molecule,"MCF7 cell growth (confluence), single agent (MCF7 breast cancer cells)",EC50 (SLC2A1 pseudotyped VLPs [4]) [nM],EC50 of binding to SLC2A1 VLPs (SLC2A1 pseudotyped VLPs [5]),MCF7 cell growth in combination with phenformin (MCF7 breast cancer cells),also measured
"Cc1nc(-c2nc(-c3ccc(OC(F)(F)F)cc3)no2)nn1Cc1cccc(N2CCC(S(C)(=O)=O)CC2)c1 [IACS-010759, reference compound]",did not influence cell growth,–,–,–,"MIAPACA2 cell growth, single agent [1]: inhibited; PC3 cell growth, single agent [2]: inhibited"
"[H]/N=C(/N)N/C(=N/[H])NCCc1ccccc1 [phenformin, reference compound]",did not influence cell growth; also recorded: No growth inhibition,–,–,–,–
"Cc1c(NC(=O)c2cc(C(N)=O)nc3cc(F)ccc23)c(C(F)(F)F)nn1Cc1ccc(C#N)cc1 [BAY-876, reference compound]",–,–,–,–,glucose (2-deoxyglucose) uptake [3]: strong concentration dependent decrease
"CN(C)C(=N)N=C(N)N [Metformin, metformin, reference compound]",did not influence cell growth,–,–,–,–
B1,–,1.2,low nanomolar,completely inhibit; also recorded: drastically inhibited; also recorded: most potent growth inhibitors,"MCF7 cell growth in combination with IACS-010759 (MCF7 breast cancer cells; co-treatment with IACS-010759, FIG. 8): drastically inhibited; MCF7 cell growth in combination with metformin (MCF7 breast cancer cells; co-treatment with metformin, FIG. 6): drastically inhibited"
B2,–,4.1,low nanomolar,No growth inhibition,–
B3,–,2.9,low nanomolar,No growth inhibition,–
B4,–,1.4,low nanomolar,completely inhibit; also recorded: most potent growth inhibitors,–
